US20060110789

Molecular target: diketide-ACP4(Ø) (DEBS ACP4 without linker, loaded with diketide), Q03132
Sequence (Q03132 other isoform, or with tags, fused parts or gaps): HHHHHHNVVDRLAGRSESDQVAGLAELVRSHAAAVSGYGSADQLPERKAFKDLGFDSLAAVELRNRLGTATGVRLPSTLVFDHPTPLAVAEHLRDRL

B1: (5)M2+TE (module 2 of DEBS with the N-terminal linker of module 5, fused to thioesterase) (protein)
chain: MSGDNGMTEEKLRRYLKRTVTELDSVTARLREVEHRAGIAIVGMACRLPGEVDSPERLWELITSGRDSAAEVPDDRGWVPDELMASDAAGTRAHGNFMAGAGDFDAAFFGISPREALAMDPQQRQALETTWEALESAGIPPETLRGSDTGVFVGMSHQGYATGRPRPEDGVDGYLLTGNTASVASGRIAYVLGLEGPALTVDTACSSSLVALHTACGSLRDGDCGLAVAGGVSVMAGPEVFTEFSRQGALSPDGRCKPFSDEADGFGLGEGSAFVVLQRLSDARREGRRVLGVVAGSAVNQDGASNGLSAPSGVAQQRVIRRAWARAGITGADVAVVEAHGTGTRLGDPVEASALLATYGKSRGSSGPVLLGSVKSNIGHAQAAAGVAGVIKVLLGLERGVVPPMLCRGERSGLIDWSSGEIELADGVREWSPAADGVRRAGVSAFGVSGTNAHVIIAEPPEPEPVPQPRRMLPATGVVPVVLSARTGAALRAQAGRLADHLAAHPGIAPADVSWTMARARQHFEERAAVLAADTAEAVHRLRAVADGAVVPGVVTGSASDGGSVFVFPGQGAQWEGMARELLPVPVFAESIAECDAVLSEVAGFSVSEVLEPRPDAPSLERVDVVQPVLFAVMVSLARLWRACGAVPSAVIGHSQGEIAAAVVAGALSLEDGMRVVARRSRAVRAVAGRGSMLSVRGGRSDVEKLLADDSWTGRLEVAAVNGPDAVVVAGDAQAAREFLEYCEGVGIRARAIPVDYASHTAHVEPVRDELVQALAGITPRRAEVPFFSTLTGDFLDGTELDAGYWYRNLRHPVEFHSAVQALTDQGYATFIEVSPHPVLASSVQETLDDAESDAAVLGTLERDAGDADRFLTALADAHTRGVAVDWEAVLGRAGLVDLPGYPFQGKRFWLLPDRTTPRDELDGWFYRVDWTEVPRSEPAALRGRWLVVVPEGHEEDGWTVEVRSALAEAGAEPEVTRGVGGLVGDCAGVVSLLALEGDGAVQTLVLVRELDAEGIDAPLWTVTFGAVDAGSPVARPDQAKLWGLGQVASLERGPRWTGLVDLPHMPDPELRGRLTAVLAGSEDQVAVRADAVRARRLSPAHVTATSEYAVPGGTILVTGGTAGLGAEVARWLAGRGAEHLALVSRRGPDTEGVGDLTAELTRLGARVSVHACDVSSREPVRELVHGLIEQGDVVRGVVHAAGLPQQVAINDMDEAAFDEVVAAKAGGAVHLDELCSDAELFLLFSSGAGVWGSARQGAYAAGNAFLDAFARHRRGRGLPATSVAWGLWAAGGMTGDEEAVSFLRERGVRAMPVPRALAALDRVLASGETAVVVTDVDWPAFAESYTAARPRPLLDRIVTTAPSERAGEPETESLRDRLAGLPRAERTAELVRLVRTSTATVLGHDDPKAVRATTPFKELGFDSLAAVRLRNLLNAATGLRLPSTLVFDHPNASAVAGFLDICCAGTAAISGPHEFTRLAGALRGIAPVRAVPQPGYEEGEPLPSSMAAVAAVQADAVIRTQGDKPFVVAGHSAGALMAYALATELLDRGHPPRGVVLIDVYPPGHQDAMNAWLEELTATLFDRETVRMDDTRLTALGAYDRLTGQWRPRETGLPTLLVSAGEPMGPWPDDSWKPTWPFEHDTVAVPGDHFTMVQEHADAIARHIDAWHHHHHH
kcat/KM, fold decrease against diketide-ACP4(4) with the same module: the kcat/KM values drop approximately 70-300 fold
